Measurements from US11472877 (Alector, dated 2022).

T1: mouse TREM2 on BWZ cells (mouse, UniProt Q99NH8 19-227)
T1 construct: whole, on cells; also called BWZ Mouse TREM2
T1 sequence (looked up): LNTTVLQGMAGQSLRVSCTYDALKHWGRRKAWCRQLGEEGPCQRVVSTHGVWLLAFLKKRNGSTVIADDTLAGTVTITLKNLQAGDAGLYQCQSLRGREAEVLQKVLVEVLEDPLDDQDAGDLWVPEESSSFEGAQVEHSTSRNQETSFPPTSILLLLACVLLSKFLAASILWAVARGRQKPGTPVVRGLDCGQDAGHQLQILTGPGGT

T2: human TREM2 on BWZ cells (human, UniProt Q9NZC2 19-230)
T2 construct: whole, on cells; not tied to the cell line; also called BWZ Human TREM2
T2 sequence (looked up): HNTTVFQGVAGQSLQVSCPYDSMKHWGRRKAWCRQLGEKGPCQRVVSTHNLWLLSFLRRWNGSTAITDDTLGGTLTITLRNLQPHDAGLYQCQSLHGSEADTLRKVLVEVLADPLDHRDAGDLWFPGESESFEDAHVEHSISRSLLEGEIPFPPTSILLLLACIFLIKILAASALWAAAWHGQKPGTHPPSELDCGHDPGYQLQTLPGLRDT


Legend:
[1] = molecular target: T1, mouse TREM2 on BWZ cells; test: FACS, BWZ cells
[2] = molecular target: T2, human TREM2 on BWZ cells; test: FACS, BWZ cells

| binding result [1] | binding result [2] | Binder |
| --- | --- | --- |
| no binding | no binding | T1-41 (antibody, IgG1, V domains shown, huIgG1; also called TI-41; ADI-19115) VH: not shown VL: DIQLTQSPSSVSASVGDRVTITCRASQDISSWLAWYQQKPGKAPKLLIYAASSLQSGVPSRFSGSGSGTDFTLTISSLQPEDFATYYCQQAVIHPPYTFGGGTKVEIK |
| no binding | no binding | T1-44 (antibody, IgG1, V domains shown, huIgG1; also called TI-44; ADI-19119) VH: QVQLVQSGAEVKKPGASVKVSCKASGYTFTSYYMHWVRQAPGQGLEWMGVINPSGGSTSYAQKFQGRVTMTRDTSTSTVYMELSSLRSEDTAVYYCAREGSGYDESMDVWGQGTTVTVSS VL: not shown |
| no binding | no binding | T1-48 (antibody, IgG1, V domains shown, huIgG1; also called TI-48; ADI-19121) VH: QVQLVQSGAEVKKPGASVKVSCKASGYTFTSYYMHWVRQAPGQGLEWMGVINPGGGSTSYAQKFQGRVTMTRDTSTSTVYMELSSLRSEDTAVYYCAREAGQTSSALDVWGQGTMVTVSS VL: not shown |
| no binding | no binding | T1-45 (antibody, IgG1, V domains shown, huIgG1; also called TI-45; ADI-19123) VH: QVQLVQSGAEVKKPGASVKVSCKASGYTFTSYYMHWVRQAPGQGLEWMGVINPSGGSTSYAQKFQGRVTMTRDTSTSTVYMELSSLRSEDTAVYYCAREGSGYDESMDVWGQGTTVTVSS VL: not shown |
| no binding | no binding | T1-46 (antibody, IgG1, V domains shown, huIgG1; also called TI-46; ADI-19124) VH: QVQLVQSGAEVKKPGASVKVSCKASGYTFTSYYMHWVRQAPGQGLEWMGVINPSGGSTSYAQKFQGRVTMTRDTSTSTVYMELSSLRSEDTAVYYCAREGSGYDESMDVWGQGTTVTVSS VL: not shown |
| no binding | no binding | T1-37 (antibody, IgG1, V domains shown, huIgG1; also called TI-37; ADI-19111) VH: QVQLVESGGGVVQPGRSLRLSCAASGFTFSSYGMHWVRQAPGKGLEWVALIWYDGSNKYYADSVKGRFTISRDNSKNTLYLQMNSLRAEDTAVYYCAKGDYLDPLFDYWGQGTLVTVSS VL: EIVMTQSPATLSVSPGERATLSCRASQSVSSNLAWYQQKPGQAPRLLIYGASTRATGIPARFSGSGSGTEFTLTISSLQSEDFAVYYCQQYAYWPLTFGGGTKVEIK |

More lines, now with the values behind:

| Binder | binding result [1] | binding result [2] |
| --- | --- | --- |
| T1-35 (antibody, IgG1, V domains shown, huIgG1; also called TI-35; ADI-19109) VH: QVQLVESGGGVVQPGRSLRLSCAASGFTFSSYGMHWVRQAPGKGLEWVAVISYDGSNKYYADSVKGRFTISRDNSKNTLYLQMNSLRAEDTAVYYCARPDYYSSRGVFDIWGQGTMVTVSS VL: not shown | no binding | no binding |
| T1-36 (antibody, IgG1, V domains shown, huIgG1; also called TI-36; ADI-19110) VH: QVQLVESGGGVVQPGRSLRLSCAASGFTFSSYGMHWVRQAPGKGLEWVAVISYDGSNKYYADSVKGRFTISRDNSKNTLYLQMNSLRAEDTAVYYCARPDYYSSRGVFDIWGQGTMVTVSS VL: not shown | no binding | no binding |
| T1-42 (antibody, IgG1, V domains shown, huIgG1; also called TI-42; ADI-19116) VH: QVQLVESGGGVVQPGRSLRLSCAASGFTFSSYGMHWVRQAPGKGLEWVAVIWYDGSNKGYADSVKGRFTISRDNSKNTLYLQMNSLRAEDTAVYYCARELMVTSGGWLYGMDVWGQGTTVTVSS VL: EIVMTQSPATLSVSPGERATLSCRASQSVSSNLAWYQQKPGQAPRLLIYGASTRATGIPARFSGSGSGTEFTLTISSLQSEDFAVYYCQQYNVHPPRTFGGGTKVEIK | no binding | no binding |
| T1-40 (antibody, IgG1, V domains shown, huIgG1; also called TI-40; ADI-19114) VH: EVQLVESGGGLVKPGGSLRLSCAASGFTFSSYSMNWVRQAPGKGLEWVSSISSSSSYIYYADSVKGRFTISRDNAKNSLYLQMNSLRAEDTAVYYCARTRIDDSFDIWGQGTMVTVSS VL: not shown | no binding | no binding |
| T1-39 (antibody, IgG1, V domains shown, huIgG1; also called TI-39; ADI-19113) VH: EVQLVESGGGLVKPGGSLRLSCAASGFTFSSYSMNWVRQAPGKGLEWVSSISSSSNYIYYADSVKGRFTISRDNAKNSLYLQMNSLRAEDTAVYYCARRGGSSSTGLLYWGQGTLVTVSS VL: DIQLTQSPSSVSASVGDRVTITCRASQDISSWLAWYQQKPGKAPKLLIYAASSLQSGVPSRFSGSGSGTDFTLTISSLQPEDFATYYCQQSLTHPTFGGGTKVEIK | no binding | no binding |
| T1-49 (antibody, IgG1, V domains shown, huIgG1; also called TI-49; ADI-19122) VH: QVQLVQSGAEVKKPGASVKVSCKASGYTFTSYYMHWVRQAPGQGLEWMGIINPSGGSTSYAQKFQGRVTMTRDTSTSTVYMELSSLRSEDTAVYYCAREAGSWLISTAFDIWGQGTMVTVSS VL: not shown | no binding | – |
| T1-38 (antibody, IgG1, V domains shown, huIgG1; also called TI-38; ADI-19112) VH: QVQLVESGGGVVQPGRSLRLSCAASGLTFSSYGMHWVRQAPGKGLEWVAVISYDGSNKYYADSVKGRFTISRDNSKNTLYLQMNSLRAEDTAVYYCARERGTYYYASGWANWGQGTLVTVSS VL: not shown | no binding | no binding |
| T1-58 (antibody, IgG1, V domains shown, huIgG1; also called TI-58; ADI-19133) VH: QLQLQESGPGLVKPSETLSLTCTVSGGSISSSSYYWGWIRQPPGKGLEWIGSIYYSGSTYYNPSLKSRVTISVDTSKNQFSLKLSSVTAADTAVYYCARQEYGDGYFDLWGRGTLVTVSS VL: not shown | – | no binding |
| T1-50 (antibody, IgG1, V domains shown, huIgG1; also called TI-50; ADI-19125) VH: QVQLVQSGAEVKKPGASVKVSCKASGYTFTSYYMHWVRQAPGQGLEWMGIINPGGGSTSYAQKFQGRVTMTRDTSTSTVYMELSSLRSEDTAVYYCAREAGTMSSAFDIWGQGTMVTVSS VL: not shown | no binding | no binding |
| T1-18 (antibody, IgG1, V domains shown, huIgG1; also called TI-18; ADI-19085) VH: EVQLVESGGGLVQPGRSLRLSCAASGFTFDDYAMHWVRQAPGKGLEWVSGISWNSGDIGYADSVKGRFTISRDNAKNTLYLQMNSLRAEDTALYYCAKGPRMVTHLDVWGQGTMVTVSS VL: DIQMTQSPSTLSASVGDRVTITCRASQSISSWLAWYQQKPGKAPKLLIYKASSLESGVPSRFSGSGSGTEFTLTISSLQPDDFATYYCQQDSIYPITFGGGTKVEIK | no binding | no binding |
| T1-43 (antibody, IgG1, V domains shown, huIgG1; also called TI-43; ADI-19117) VH: QVQLVQSGAEVKKPGASVKVSCKASGYTFTSYYMHWVRQAPGQGLEWMGIINPSGGSTSYAQKFQGRVTMTRDTSTSTVYMELSSLRSEDTAVYYCAREAGNYYDIESAFDIWGQGTMVTVSS VL: not shown | no binding | no binding |
| T1-8 (antibody, IgG1, V domains shown, huIgG1; also called TI-8; ADI-19074) VH: QVQLVQSGAEVKKPGASVKVSCKASGYTFTSYYMHWVRQAPGQGLEWMGIINPSGGSTSYAQKFQGRVTMTRDTSTSTVYMELSSLRSEDTAVYYCAREVSMTAASLDVWGQGTMVTVSS VL: not shown | no binding | no binding |
| T1-10 (antibody, IgG1, V domains shown, huIgG1; also called TI-10; ADI-19077) VH: QVQLVQSGAEVKKPGASVKVSCKASGYTFTSYYMHWVRQAPGQGLEWMGIINPSGGSTSYAQKFQGRVTMTRDTSTSTVYMELSSLRSEDTAVYYCAREGSGSWETLDVWGQGTMVTVSS VL: not shown | no binding | no binding |
